What is called Kd is the concentration at which binding is half-saturated.

Experiment [1] deals with T1, recombinant human LPHN2 lectin-olfactomedin-like domain, residues F26-P394 (human, UniProt O95490 26-394).
T1 chain: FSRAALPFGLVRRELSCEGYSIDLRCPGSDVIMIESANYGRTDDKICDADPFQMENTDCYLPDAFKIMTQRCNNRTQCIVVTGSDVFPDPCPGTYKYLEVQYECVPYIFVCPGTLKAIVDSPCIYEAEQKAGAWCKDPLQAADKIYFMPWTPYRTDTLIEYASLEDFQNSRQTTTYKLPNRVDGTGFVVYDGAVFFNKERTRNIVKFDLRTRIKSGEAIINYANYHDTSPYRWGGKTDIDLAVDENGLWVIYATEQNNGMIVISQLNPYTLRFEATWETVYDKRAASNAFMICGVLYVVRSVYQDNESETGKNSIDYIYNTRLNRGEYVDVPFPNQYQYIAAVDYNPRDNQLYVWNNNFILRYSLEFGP
Kind of experiment: solid-phase binding (ELISA).

In experiment [2] the target is LPHN2 Lec. As to the kind of experiment: solid-phase binding (ELISA). (In general: ELISA stands for enzyme-linked immunosorbent assay.)

B1: deglycosylated LRG1 (LRG1 treated with PNGase F) (ligand)
chain: VTLSPKDCQVFRSDHGSSISCQPPAEIPGYLPADTVHLAVEFFNLTHLPANLLQGASKLQELHLSSNGLESLSPEFLRPVPQLRVLDLTRNALTGLPPGLFQASATLDTLVLKENQLEVLEVSWLHGLKALGHLDLSGNRLRKLPPGLLANFTLLRTLDLGENQLETLPPDLLRGPLQLERLHLEGNKLQVLGKDLLLPQPDLRYLFLNGNKLARVAAGAFQGLRQLDMLDLSNNSLASVPEGLWASLGQPNWDMRDGFDISGNPWICDQNLSDLYRWLQAQKDKMFSQNDTRCAGPEAVKGQTLLAVAKSQ
modifications: N-linked glycans removed with PNGase F (sites N79, N186, N269, N325 on SEQ ID NO: 1)
In the case of B1, in experiment [1], the Kd worked out at 430 nM.

B2: DG-LRG1 (ligand)
chain: VTLSPKDCQVFRSDHGSSISCQPPAEIPGYLPADTVHLAVEFFNLTHLPANLLQGASKLQELHLSSNGLESLSPEFLRPVPQLRVLDLTRNALTGLPPGLFQASATLDTLVLKENQLEVLEVSWLHGLKALGHLDLSGNRLRKLPPGLLANFTLLRTLDLGENQLETLPPDLLRGPLQLERLHLEGNKLQVLGKDLLLPQPDLRYLFLNGNKLARVAAGAFQGLRQLDMLDLSNNSLASVPEGLWASLGQPNWDMRDGFDISGNPWICDQNLSDLYRWLQAQKDKMFSQNDTRCAGPEAVKGQTLLAVAKSQ
modifications: N-linked glycans removed with PNGase F (sites N79, N186, N269, N325 on SEQ ID NO: 1)
Molecule B2 yielded a dissociation constant Kd in experiment [2] of 1100 nM.

B3: recombinant human LRG1 (leucine-rich alpha-2 glycoprotein 1), residues V36-Q347, untagged, glycosylated (ligand)
chain: VTLSPKDCQVFRSDHGSSISCQPPAEIPGYLPADTVHLAVEFFNLTHLPANLLQGASKLQELHLSSNGLESLSPEFLRPVPQLRVLDLTRNALTGLPPGLFQASATLDTLVLKENQLEVLEVSWLHGLKALGHLDLSGNRLRKLPPGLLANFTLLRTLDLGENQLETLPPDLLRGPLQLERLHLEGNKLQVLGKDLLLPQPDLRYLFLNGNKLARVAAGAFQGLRQLDMLDLSNNSLASVPEGLWASLGQPNWDMRDGFDISGNPWICDQNLSDLYRWLQAQKDKMFSQNDTRCAGPEAVKGQTLLAVAKSQ
modifications: glycosyl groups at T37 (O-linked), N79, N186, N269 and N325 (N-linked), numbered on SEQ ID NO: 1
In the case of B3, in experiment [1], the dissociation constant Kd is 890 nM.

Values taken from patent US20240083959A1 (published 2024).
